{
  "source": "patent US20260248947A1",
  "about": "“Methods of Treating Cancer Using Anti-HER2 Antibody-Drug Conjugates and HER2 Kinase Inhibitors” (Seagen Inc., priority 2023, published 2026)",
  "key": {"[1]": {"system": "panel of breast cancer cell lines spanning a range of HER2 expression", "experiment": "96-hour CellTiterGlo cytotoxicity assay of DV, T-DM1 and T-DXd", "format": "cell-based", "procedure": "The following cell lines were cultured in the vendor-recommended conditions: breast cancer cell lines SK-BR-3, BT-474, UACC-893, HCC-202, JIMT-1, and BT-483. Cytotoxicity assays were performed using CellTiter-Glo (CTG) Luminescent Cell Viability assay (Promega Corporation) as per the manufacturer's protocol. Cells were seeded in 96-well plates and incubated overnight as previously described (1). […] Cells were then incubated at 37° C. in 5% CO2, and cell viability was measured at 96 hours after dosing.\nInternalization of anti-HER2 ADCs DV, T-DM1, and T-DXd (two HER2-targeting ADCs with trastuzumab as a backbone) was also tested in breast cancer cell lines SK-BR-3, HCC-202, and BT-483."}, "[2]": {"system": "HER2-low breast cancer patient-derived xenograft (PDX) models CTG-1520 (IHC 0), CTG-0012 (IHC 1+), CTG-0670 (IHC 2+)", "experiment": "Tumor volume in HER2-low breast cancer PDX models", "format": "in vivo, Mice", "conditions": "single intravenous dose 0.3, 1, 2 or 5 mg/kg; in a subset of the models", "procedure": "First, the anti-tumor effect of DV as a monotherapy was tested in three PDX models with varying HER2 expression levels. Three breast cancer PDX models were used: CTG-1520 (IHC 0), CTG-0012 (IHC 1+), and CTG-0670 (IHC 2+). Mice (n=10/group) were treated with the indicated concentrations of DV (intravenous, single dose), and tumor volume was measured over time. […] Dashed lines represent carry-over of tumor volumes from individual animals that were removed from study when their tumors reached maximum allowable size (less than 3/10 animals per group).\nNext, DV and tucatinib were tested as monotherapies and in combination in the three PDX models. Mice (n=10/group) were treated with the indicated concentrations of tucatinib (50 mg/kg oral, twice daily), DV (1 or 2 mg/kg, intravenous, single dose), or a combination of tucatinib and DV, and tumor volume was measured over time. […] Dotted lines represent carry-over of tumor volumes from individual animals that were removed from study when their tumors reached maximum allowable size (less than 3/10 animals per group)."}, "HCC-1954": {"system": "HCC-1954", "experiment": "144-hour CellTiter-Glo cytotoxicity assay, DV and T-DXd", "format": "cell-based", "conditions": "HCC-1954, 1,259,000 HER2 receptors/cell, 1-10,000 ng/mL", "procedure": "(§1) DV and T-DXd were evaluated against breast cancer cell lines spanning a range of HER2 expression levels (calculated by quantitative flow cytometry): HCC-1954 with 1,259,000 HER2 receptors/cell, MDA-MB-361 with 60,000 HER2 receptors/cell, and HCC-38 with 20,000 HER2 receptors/cell. Drugs were titrated (1-10,000 ng/mL), and viability was tested in a 144-hour CellTiter-Glo cytotoxicity assay."}, "HCC-38": {"system": "HCC-38", "experiment": "144-hour CellTiter-Glo cytotoxicity assay, DV and T-DXd", "format": "cell-based", "conditions": "HCC-38, 20,000 HER2 receptors/cell, 1-10,000 ng/mL", "procedure": "as §1"}, "MDA-MB-361": {"system": "MDA-MB-361", "experiment": "144-hour CellTiter-Glo cytotoxicity assay, DV and T-DXd", "format": "cell-based", "conditions": "MDA-MB-361, 60,000 HER2 receptors/cell, 1-10,000 ng/mL", "procedure": "as §1"}, "[3]": {"system": "PDO SG-111-444-6273 (HER2 low)", "experiment": "Patient-derived organoid cytotoxicity, caspase-3/7 fluorescence imaging", "format": "cell-based", "conditions": "DV 27-6,700 ng/mL, T-DXd 41-10,000 ng/mL", "procedure": "(§2) DV and T-DXd were also tested against a panel of PDOs: HER2 low SG-111-444-6273, HER2 low SG-634-395-2953, and HER2 moderate SG-553-819-8499. DV was titrated across a range of 27-6,700 ng/mL, while T-DXd was titrated across a range of 41-10,000 ng/mL. Drug and media was exchanged every four days. Analysis was conducted with fluorescence imaging: PDOs were identified from clusters of Hoechst positive cells, and caspase-3/7 was used for the identification of apoptotic cells. Mean caspase-3/7 intensity was measured per well and normalized to cell count."}, "[4]": {"system": "PDO SG-553-819-8499 (HER2 moderate)", "experiment": "Patient-derived organoid cytotoxicity, caspase-3/7 fluorescence imaging", "format": "cell-based", "conditions": "DV 27-6,700 ng/mL, T-DXd 41-10,000 ng/mL", "procedure": "as §2"}, "[5]": {"system": "PDO SG-634-395-2953 (HER2 low)", "experiment": "Patient-derived organoid cytotoxicity, caspase-3/7 fluorescence imaging", "format": "cell-based", "conditions": "DV 27-6,700 ng/mL, T-DXd 41-10,000 ng/mL", "procedure": "as §2"}, "[6]": {"system": "GA3102 (IHC 3+) gastric cancer PDX", "experiment": "Tumor volume / normalized AUC in gastric cancer PDX model", "format": "in vivo, Mice", "conditions": "GA3102 (FIGS. 12K, 12L); tucatinib 50 mg/kg oral twice daily, DV 2 mg/kg intravenous single dose", "source_text": "(§3) FIGS. […] show the effects of combining DV and tucatinib vs. DV as a single agent in gastric cancer patient-derived xenograft (PDX) models with varying HER2 expression levels: GA13745 (IHC 1+; FIGS. 12A, 12B), GA6821 (IHC 1+; FIGS. 12C, 12D), CTG-0148 (IHC 1+; FIGS. 12E, 12F), CTG-3036 (IHC 2+; FIGS. 12G, 12H), CTG-3033 (IHC 3+; FIGS. 12I, 12J), and GA3102 (IHC 3+; FIGS. 12K, 12L). Treatment with T-DXd, a HER2-directed ADC, was also included in the study. Tumor volume data shown as mean±SEM. For each model, tumor growth was evaluated using a normalized area under the curve (AUC) metric (see, Guo, S. et al. (2019) BMC Cancer 19, 718) (FIGS. 12A, 12C, 12E, 12G, 12I, 12K). AUC was calculated for each model for the duration of the experiment, then compared by one-way ANOVA followed by Tukey's post-hoc test. The box-and-whisker plots represent the median and range for each treatment group (FIGS. 12B, 12D, 12F, 12H, 12J, 12L). […]\n(§4) DV and tucatinib were tested as monotherapies and in combination in PDX models with varying HER2 expression levels. […] Mice (n=10/group) were treated with tucatinib (50 mg/kg oral, twice daily), DV (2 mg/kg, intravenous, single dose), a combination of tucatinib and DV, or T-DXd (2 mg/kg, intravenous, single dose), and tumor volume was measured over time."}, "[7]": {"system": "GA6821 (IHC 1+) gastric cancer PDX", "experiment": "Tumor volume / normalized AUC in gastric cancer PDX model", "format": "in vivo, Mice", "conditions": "GA6821 (FIGS. 12C, 12D); tucatinib 50 mg/kg oral twice daily, DV 2 mg/kg intravenous single dose", "source_text": "as §3, §4"}},
  "data": [
    {"substance": "disitamab vedotin [DV]", "values": [
      {"measurement": "IC50 compared with the IC50 for T-DM1 and T-DXd", "setting": "[1]; for each cell line of the panel", "value": "lower"},
      {"measurement": "in vitro cytotoxic activity against the panel of breast cancer cell lines", "setting": "[1]; variable HER2 expression, including HER2-low range, 0.01-10,000 ng/mL", "value": "in vitro cytotoxic activity"},
      {"measurement": "anti-tumor effects (tumor volume) of DV monotherapy", "setting": "[2]", "value": "anti-tumor effects in a dose-dependent manner"},
      {"measurement": "single-agent cytotoxic activity as compared to T-DXd", "setting": "HCC-1954", "value": "more potent single-agent cytotoxic activity"},
      {"measurement": "single-agent cytotoxic activity as compared to T-DXd", "setting": "HCC-38", "value": "more potent single-agent cytotoxic activity"},
      {"measurement": "single-agent cytotoxic activity as compared to T-DXd", "setting": "MDA-MB-361", "value": "more potent single-agent cytotoxic activity"},
      {"measurement": "single-agent cytotoxic activity as compared to T-DXd (caspase-3/7 intensity)", "setting": "[3]", "value": "more potent single-agent cytotoxic activity"},
      {"measurement": "single-agent cytotoxic activity as compared to T-DXd (caspase-3/7 intensity)", "setting": "[4]", "value": "more potent single-agent cytotoxic activity"},
      {"measurement": "single-agent cytotoxic activity as compared to T-DXd (caspase-3/7 intensity)", "setting": "[5]", "value": "more potent single-agent cytotoxic activity"},
      {"measurement": "anti-tumor activity compared to untreated control (normalized AUC tumor growth metric)", "setting": "[6]", "value": "significant anti-tumor activity"},
      {"measurement": "anti-tumor activity compared to untreated control (normalized AUC tumor growth metric)", "setting": "[7]", "value": "significant anti-tumor activity"}
    ]}
  ]
}
